Assay results as given in doi:10.1101/2025.09.11.675134, “Biodistribution-Driven Discovery Identifies a Glycosidase-Cleavable Linker to Reprogram Radiotheranostics” (bioRxiv, 2025).
Like-named read-outs stand apart in the source and are kept apart here.

Columns and labels:
[1] = Blood chemistry and complete blood count during therapy; type: in vivo, athymic nu/nu mice; details: one cycle of 225Ac treatment (148 kBq), blood at 0, 10 and 31 days, VetScan HM5
Excerpt: Blood samples were collected at multiple timepoints during therapy studies and analyzed to assess toxicity (Fig. S25). Biochemical parameters of liver (e.g. alanine aminotransferase, bilirubin) and renal (blood urea nitrogen, and creatinine) toxicity remained mostly within normal limits across all groups. […] These findings further support the favorable tolerability profiles of the cleavable linker constructs.
Additionally, a basic metabolic panel (BMP) and complete blood count (CBC) analysis were performed to monitor hematological parameters and potential treatment-related toxicity. For the one-cycle therapy cohort, blood was collected at 0-, 10-, and 31-days post-treatment, whereas for the two-cycle therapy cohort, blood was collected at 10 days, 3 months, and 6 months post-treatment. Samples were obtained retro-orbitally into potassium EDTA-coated tubes and analyzed using the Vetscan VS2 (Abaxis, Union City, CA, USA) and VetScan HM5 hematology analyzer (Abaxis). Although these instruments provide species-specific reference intervals, manufacturer-supplied ranges may not fully reflect our study cohort. […] The following parameters were assessed and compared: alanine transaminase (ALT, U/L), total bilirubin (TBIL, μmol/L), creatinine (CRE, μmol/L), blood urea nitrogen (BUN, mmol/L), total white blood cell count (WBC, 10^9/L), hemoglobin (HGB, g/dL), and platelets (PLT, 10^9/L).

[2] = Urine metabolite analysis by radio-HPLC; type: in vivo; details: normal non-tumor-bearing athymic nu/nu mice, i.v. 13–15 MBq in 200 μL PBS (4 μg), urine 1 h post-injection, n = 3
Procedure: To elucidate the role of linker cleavage in reducing renal retention, we performed metabolite analysis of ^86Y-labeled DOTA-TATE derivatives in normal, non-tumor-bearing athymic nu/nu mice. […] These samples were analyzed by radio-HPLC alongside synthetic standards corresponding to the expected cleavage products: ^86Y-DOTA-G-M-OH and ^86Y-DOTA-NHMe (Fig. 4A).

AR42J xenografts = test: PET/CT quantification of 86Y-labeled variants in AR42J xenograft mice; type: in vivo; details: PET SUVmax, 24 h post-injection
Procedure: For studies involving three variants (DOTA -TATE, DOTA-MVK(ε)-TATE, and DOTA-β-Gal-TATE), AR42J cells (5 × 10^6 cells per mouse) were subcutaneously inoculated into the right shoulder of the mice. Tumors were allowed to grow for 3 weeks, reaching a volume of 100 –200 mm³ before being used in subsequent experiments. For biodistribution or PET imaging studies, mice bearing subcutaneous AR42J tumors were administered 1.4 – 1.8 MBq (1 μg) of 111In-labeled DOTA-TATE variants or 2.7 – 4.9 MBq (1 μg) of 86Y-labeled DOTA-TATE variants via […]
tail vein injection. […]
PET imaging to assess the uptake of three 86Y-labeled DOTA-TATE variants (2.7 – 4.9 MBq, 1 μg) in the kidney and tumor was performed at 1, 4, and 24 hours post-injection (n = 3 per cohort) in mice bearing AR42J tumors using the MRS*PET/CT 120 scanner (MR Solutions, Guildford, UK). PET/CT data acquisition was managed using Preclinical Scan software (version 4.2.4.0, MR Solutions). Mice were anesthetized with 2% isoflurane, and static PET sc ans were acquired over 10 min. CT scans were obtained for attenuation correction and anatomical co-registration.
PET data were reconstructed using three-dimensional ordered-subsets expectation maximization, and were subsequently normalized, decay - and dead-time–corrected prior to analysis. PET/CT images were analyzed using MIM software (version 7.2.7, MIM Software Inc., Beachwood, OH, USA), and the quantitative evaluation of the maximum standardized uptake (SUVmax) and the average standardized uptake values (SUVmean) in the kidney and tumor were also performed. […]

β-galactosidase = β-galactosidase 10 KU/mL in PBS (10 mM, pH 7.2), 37 °C; for Cleaved product 86Y-DOTA-NHMe, % of the total activity: mixed 1:1 (v/v), radio-TLC
Procedure: To further confirm β-galactosidase-specific cleavage, ^86Y-DOTA-β-Gal-TATE was incubated in vitro with β-galactosidase and analyzed by radio-TLC over time.
To analyze radioactive urine metabolites, ^86Y-DOTA-MVK(ε)-TATE or ^86Y-DOTA-β-Gal-TATE (13 – 15 MBq in 200 μL PBS, 4 μg) was intravenously injected into normal, non-tumor-bearing athymic nu/nu mice (n = 3). As reference controls, standard metabolites of ^86Y-DOTA-MVK(ε)-TATE (^86Y-DOTA-G-M-OH) and ^86Y-DOTA-β-Gal-TATE (^86Y-DOTA-NHMe) were also prepared and administered to normal athymic, non-tumor-bearing nu/nu mice. Urine samples were collected 1 hour post-injection, centrifuged at 10,000 rpm, and subsequently analyzed by radio-HPLC for each ^86Y-labeled DOTA-TATE variant. The radio-HPLC peaks were compared with those of the standard metabolites (^86Y-DOTA-G-M-OH or ^86Y-DOTA-NHMe). Radio-HPLC analysis was conducted under the same conditions as those used for analyzing the radiolabeled the DOTA-TATE variants, using an Agilent 1260 Infinity II system with a TSK-gel Octadecyl-4PW column and a gradient elution method. For in vitro enzyme-mediated cleavage, β-galactosidase was prepared in PBS (10 mM, pH 7.2) at 10 KU/mL. ^86Y-DOTA-β-Gal-TATE (13–15 MBq in 200 μL PBS) was mixed 1:1 (v/v) with β-galactosidase solution and incubated at 37 °C. Aliquots were taken at 1, 4, and 24 h, centrifuged at 10,000 rpm, and the supernatants were analyzed by radio-TLC. The 24 h sample was further examined by radio-HPLC to confirm metabolite identity.

Structure (SMILES)	White blood cell counts [1]	Share of total urinary radioactivity corresponding to the cleaved metabolite (86Y-DOTA-G-M-OH or 86Y-DOTA-NHMe) [2] [%]	T/K ratio higher than that of 86Y-DOTA-MVK(ε)-TATE (AR42J xenografts)	T/K ratio higher than that of 86Y-DOTA-TATE (AR42J xenografts)	Compound converted to 86Y-DOTA-NHMe (β-galactosidase; 24 h sample, radio-HPLC (peak at 2.6 min)) [%]	Cleaved product 86Y-DOTA-NHMe, % of the total activity (β-galactosidase; 1 h) [%]	Cleaved product 86Y-DOTA-NHMe, % of the total activity (β-galactosidase; 4 h) [%]	Cleaved product 86Y-DOTA-NHMe, % of the total activity (β-galactosidase; 24 h) [%]
C[C@@H](O)[C@H](NC(=O)[C@@H]1CSSC[C@H](NC(=O)[C@@H](Cc2ccccc2)NC(=O)CCCC(=O)Nc2cc(COC(=O)N(C)CCNC(=O)CN3CCN(CC(=O)O)CCN(CC(=O)O)CCN(CC(=O)O)CC3)ccc2O[C@@H]2O[C@H](CO)[C@H](O)[C@H](O)[C@H]2O)C(=O)N[C@@H](Cc2ccc(O)cc2)C(=O)N[C@H](Cc2c[nH]c3ccccc23)C(=O)N[C@@H](CCCCN)C(=O)N[C@@H]([C@@H](C)O)C(=O)N1)C(=O)O [^225Ac-DOTA-β-Gal-TATE, metal not drawn]	transient decrease following one cycle of ^225Ac treatment that recovered at later time points	–	–	–	–	–	–	–
C[C@@H](O)[C@H](NC(=O)[C@@H]1CSSC[C@H](NC(=O)[C@@H](Cc2ccccc2)NC(=O)CCCC(=O)Nc2cc(COC(=O)N(C)CCNC(=O)CN3CCN(CC(=O)O)CCN(CC(=O)O)CCN(CC(=O)O)CC3)ccc2O[C@@H]2O[C@H](CO)[C@H](O)[C@H](O)[C@H]2O)C(=O)N[C@@H](Cc2ccc(O)cc2)C(=O)N[C@H](Cc2c[nH]c3ccccc23)C(=O)N[C@@H](CCCCN)C(=O)N[C@@H]([C@@H](C)O)C(=O)N1)C(=O)O [^86Y-DOTA-β-Gal-TATE, metal not drawn]	–	47.4	approximately 2.7 fold	over 10 fold	90.7	24.6	50.2	88.8
